Tested on: primary cultured neurons derived from hippocampus of mature rat
Assay: Cytotoxicity test (Cell Death Detection ELISA, apoptosis)
Assay type: cell-based
Experimental: The formation of ASPD was confirmed by the following cytotoxicity test. A certain amount of ASPD was administered overnight to primary cultured neurons (more than 19 days after starting culture) derived from hippocampus of mature rat, and the neurotoxicity was measured in accordance with protocols using Cell Death Detection ELISA manufactured by Roche Diagnostics. This is an ELISA kit for quantitative detection of histone-complexed DNA fragmentation in the cells caused by apoptosis.

Compound	cytotoxicity (neurotoxicity) (solution containing synthetic ASPD before purification, 1, 2 and 4 μM in terms of Aβ42, administered overnight, compared with Comparative Example 1 (DEHP−), FIG. 2)	cytotoxicity (neurotoxicity) (solution containing the same concentration of DEHP and not containing synthetic ASPD, data not shown)
Example 1: synthetic ASPD (amylospheroid) formed from Aβ42 by agitation using 65 mM DEHP/DMSO solution	significant cytotoxicity in a concentration-dependent manner	–
CCCCC(CC)COC(=O)c1ccccc1C(=O)OCC(CC)CCCC (centres unmarked) [DEHP, bis(2-ethylhexyl)phthalate]	–	No cytotoxicity
